± gives the uncertainty stated by the source.
Test: amyloid nucleation score (Sup35N fusion, yeast selection) (log enrichment); library NNK3; higher = more nucleation; inactive = no reads after selection
Method in brief: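 DiMSum was used to calculate nucleation scores as log enrichment of output over input reads, centred on the mode score of non-aggregating sequences. Sequences with fewer than 100 input reads were not scored. Input and output came from Illumina sequencing of plasmid inserts in psi-negative yeast expressing peptides of 20 random codons fused to Sup35N, induced 24 hours with 100 μM copper sulfate and then grown 7 days at 30°C on medium lacking adenine and uracil.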

Substance | amyloid nucleation score
FLGFEYILIAFRVGQYYLTG | inactive
WKYDKGNFRALVW | inactive
CQVSCFNLVSIKSWDKIAGS | 2.52 ± 0.06
RTECYVYKYDALDSRLGYCD | -0.18 ± 0.62
IVFNGLRSMNRE | inactive
LSDLEDWRNYRWSKEDLKVE | inactive
CSFIAGAPTSFWVVGLCWKY | -0.031 ± 0.72
SCGMERRLIIYSSSHNNILY | 0.178 ± 0.88
QYWNFFRFVRGDD | 0.601 ± 0.14
AMHHSNRSKPVSVIRWMWRC | inactive
RERIYAELFSSWRRSAKGIF | inactive
SSAYHSHDSSRTKRNRSGRM | inactive
WLKAEGWIIILSSATRPG | inactive
SDVKSS | inactive
RSFVVNYWGFSDMLHFCRLC | inactive
DGHWVALREKSFSNQYRSET | inactive
TVLCRYVAYLVVSANYLDEC | inactive
SCAKQLCYHGFLMGH | inactive
DKKVSISRVSR | inactive
FFPAMRTCWGKSGCARPYA | inactive
HQTLKSQD | inactive
LPEMGFFSLVDNWLAVAFSK | 1.46 ± 0.081
NTCSCTGFTFAAGDV | -0.33 ± 0.39

Substance | amyloid nucleation score
MRRTSCTVYTGKIRRIMYVV | inactive
CPVTIYSVYNTASVKALFLR | inactive
CSIARLFWFFPVMPSCIG | -0.236 ± 1.1
PVMLGYGMGYSATVVKGCCL | inactive
HLRLRRTFGINLH | inactive
VQLPVIVSAPPI | -0.421 ± 1.1
SNPLQGDSLRSVLSCNSIYF | inactive
YFTNDQNKQGFHWMGYMSHI | inactive
FHIPLSQRCLAPFCNAHL | inactive
FTWRRFRVKSYYDYFASLGV | inactive
IRDLSLNQSGYFTFVTCWRC | 2.73 ± 0.067
EEGCYHLLNNLGRNCSECNG | inactive
IYRLKDRLDDLVSHVDICVV | inactive
WSDWRLIKFNFRRSYLCLLW | inactive
NALTNSVKLFVLQTIVVYMR | inactive
NKWLDRNKG | inactive
SSGLICF | inactive
FAMMDELRRMWARSACSTRV | inactive
PDKVWMYCQHICAVKMSLIC | inactive
NWFWLF | inactive
VRNLLKMTFR | inactive
TRNIMRSIMVPSTWRVFITV | inactive
GKPWGTGSLVLWYLYDEDCA | inactive

Substance | amyloid nucleation score
FFRVYYRSTGGVNM | inactive
RLMNFVPSFVFCCFYKK | 1.27 ± 0.14
RTHRRKSDTVMLES | inactive
TSRTGRMEYISRELGQRVWM | inactive
PVDKCRCGGWNLSHLHKLSS | -0.615 ± 1.7
HKCGQDFYR | inactive
LDARN | -0.213 ± 1.5
KLNLG | inactive
CISRKFFSVRSVYLWYVSAT | inactive
YKRRKTVNWHQDCTAIFGGN | inactive
IAGFRNGSPANNAVGKPG | inactive
PLWTPDGPLIGVVFVLSNNV | 1.03 ± 0.15
IYCVNSSAFVLEPF | inactive
MSGLENVACDYKRELAMKRS | inactive
HFVLCDHYVR | inactive
MDVARRMFLISYIFIIFVVR | inactive
LGSCCLLYYYAKTVMNMFSK | inactive
CLRRVPLQRSSFLSVNLKLM | inactive
STVVNSYMNFCACKGSNMAC | 2.7 ± 0.068
RVLYSFQCAFLMDKETSSGR | inactive
TPSLAIKK | inactive
SCMGFVRQANIVG | inactive
PHSYA | inactive

Substance | amyloid nucleation score
VGGFFTSYKNYTK | 0.671 ± 0.27
FWSDFYPHVLIRWFRSMVRS | inactive
VTELDEWSGIVVEGYNACSS | inactive
CAFPVDGRGTIVVFRHVLEG | inactive
ILFTYCSYINREVLRWMQDS | inactive
WCAVMPFRSVTSNVIFDLSV | inactive
RGNATGSIKD | inactive
YKYDRFWKVFHQGRTLVAGG | inactive
FWTSLPFVGHNNISCRLPTP | inactive
CIDSYLMYVFVAQQPGN | inactive
WACIQK | inactive
DFYICPCCLSLKKRTMMSCG | inactive
TLSLACGSYVQCSMEFLSSG | 1.6 ± 0.08
VYYYKMTGKVYMSLYMGKLL | inactive
YSLSINCMFRYRSFSDFIDN | 0.992 ± 0.2
WNTGETISRRLVVYNFIEMN | 2.22 ± 0.056
VCSSINPFQNMTSFKVWIKS | inactive
DDGDVNDGRTWFIL | inactive
MKLHTPIEMLEGTHIGHVCG | inactive
PLSTITDGLMRSLVTLVGHS | inactive
VYTGHVGLFV | inactive
FVRDRFTIMFEWIAVLRLEL | inactive
DGFIWAQGLTLIFMRSNMKR | 2.42 ± 0.055

Substance | amyloid nucleation score
AIGRTCGKYMYSFGGLHSSH | inactive
RYCVS | inactive
VSLQLLWNPMLSYFTFQVGR | 1.16 ± 0.19
FDACLTERVVGISKDTDTSG | inactive
SSKMLTLMWMVGPPLSTDGS | inactive
IMELLQV | inactive
AGLLDMARSVDCSGLGYGFF | -0.82 ± 1
RDIVVNRLVRACSLGFLCLG | -0.792 ± 1.4
YRILRRYSDPAHEDIKRCTL | inactive
TDHNDLMKLFATRCSPNPCL | inactive
MLYNCRQGCKRSW | 0.248 ± 0.44
QHSSLKWYLYDYRFLLYTVL | -0.562 ± 0.5
GSLPFLSYLGRVKCGERRSS | inactive
AGVNLRTIRVMYRLPIISYL | inactive
SIGNAIS | inactive
RRYIRSVNCKQWDYKFLMYS | inactive
FYMSNDCP | inactive
LATHSICVKGNSRVSELISA | inactive
LNSSVYVLLRSILPSVWNQL | inactive
PLCVWVWKLRVVFRRLYFEF | inactive
VMRGASYFPTELADDDLMPG | inactive
VGAHSYHVRTPDTES | 0.221 ± 0.47
VSYTYAGYSIRYIVFSS | inactive

Substance | amyloid nucleation score
SFDQNRRVVIFVSPHSEGMR | inactive
TNRPMNGSYNNMWSRINLMV | inactive
CWPESISVVYLQYCAGSMSL | inactive
PRFYANRFTVLFLYNLDI | -0.227 ± 1.1
KDKQVV | inactive
YKNEMGTIPCRRVTSNCLSY | inactive
VGSLVHLGLGWIRTLLLYGV | inactive
RPRMPVRLWWYTKLGYFKDR | inactive
LNILF | 0.826 ± 0.11
SIMTSFRPFPTWRCG | -0.563 ± 0.57
RYYIMILLS | inactive
NVWLNGWIVGMGYNNWHILW | 1.93 ± 0.072
FSASSISDKIFSMEYCTTWV | inactive
IVYMDECLYQFNGPDVVPMF | inactive
VLEYHTQPWGLAQRQTWLSG | inactive
GREAGVIIWVRCLYFYVFER | inactive
NPWPAWPGTSCIRDLQTSIR | inactive
TLGSAEDMYRQPRIANTDSC | -0.123 ± 0.59
EFVSDLDTDEVGLHCFCWCP | inactive
SRWIGYSFSGGSGGFVGRKA | inactive
VLRSNKYRITMGMGKKFPAL | inactive
YKRFMIPIKYCGGQRNTDVR | inactive
GERVSSESGRMPLPLCCYLV | inactive

Substance | amyloid nucleation score
SLAKFNMNYGTYGLEGFSVW | -0.209 ± 0.81
FYFDARRSITLSNSNVVKLW | 1.93 ± 0.08
FLSDSNT | inactive
YNFECLIFWSVKYLVCQHIT | inactive
VYVWSG | inactive
LNYVVTHLYLVLFHVMVSDG | inactive
FVIVYAMCKLYLMEKMRLIS | inactive
KHVGIVMH | inactive
KWLYTDYRVISSHILKHLSA | inactive
KFGSLWRSNESDSSNSALRY | inactive
PFWSGMIPIIEDPISGAL | inactive
RAVHR | inactive
LKGKP | inactive
LAMSYYLYPGSCDLKRS | inactive
IEVVYNLFWSRTFGAFVTKV | inactive
SFEPRSLMYNTNRGI | inactive
TTKQKV | inactive
LLTYHTSGYSCWSEG | inactive
DWYMTVW | inactive
SRALDGYKVPRFWIVRARGR | inactive

From the supplement of paper PMC12042874
